Test results from patent publication US20220281949A1.

Experiments:
DR1-restricted TCR HA1.7 [1] = assay: flow cytometry: HA1.7-transduced primary CD4+ T cells stained with PE DR1 dimer and anti-CD4
DR1-restricted TCR HA1.7 [2] = assay: as above; remark: listed apart in the source
DR1-restricted TCR HA1.7 [3] = assay: flow cytometry: TCR-transduced primary human T cells stained with PE class II dimer and anti-CD4

| Substance | percent of cells in the dimer+ CD4+ quadrant (DR1-restricted TCR HA1.7 [1]) | percent of cells in the dimer+ CD4+ quadrant (DR1-restricted TCR HA1.7 [2]) | percent of cells in the dimer+ CD4+ quadrant (DR1-restricted TCR HA1.7 [3]) |
| --- | --- | --- | --- |
| DR1^L114W/V143M+2reps dimer specific to Flu-HA306-318 (peptide-MHC) | 48.9% | 53% | 9.1% |
| DR1^L114W/V143M dimer with the cognate peptide of TCR HA1.7 (peptide-MHC) | 1.5% | – | – |
